Source: US20100129369A1 (Eli Lilly, published 2010)

What was measured:
[1] = target: T1, RON-ECD-Fc (human, UniProt Q04912 25-957); test: ELISA, coated ECD-Fc, antibody 77.160 ng/mL
T1 construct: extracellular domain; Bought reagent; not shown: Fc part of the bought fusion
T1 sequence (looked up): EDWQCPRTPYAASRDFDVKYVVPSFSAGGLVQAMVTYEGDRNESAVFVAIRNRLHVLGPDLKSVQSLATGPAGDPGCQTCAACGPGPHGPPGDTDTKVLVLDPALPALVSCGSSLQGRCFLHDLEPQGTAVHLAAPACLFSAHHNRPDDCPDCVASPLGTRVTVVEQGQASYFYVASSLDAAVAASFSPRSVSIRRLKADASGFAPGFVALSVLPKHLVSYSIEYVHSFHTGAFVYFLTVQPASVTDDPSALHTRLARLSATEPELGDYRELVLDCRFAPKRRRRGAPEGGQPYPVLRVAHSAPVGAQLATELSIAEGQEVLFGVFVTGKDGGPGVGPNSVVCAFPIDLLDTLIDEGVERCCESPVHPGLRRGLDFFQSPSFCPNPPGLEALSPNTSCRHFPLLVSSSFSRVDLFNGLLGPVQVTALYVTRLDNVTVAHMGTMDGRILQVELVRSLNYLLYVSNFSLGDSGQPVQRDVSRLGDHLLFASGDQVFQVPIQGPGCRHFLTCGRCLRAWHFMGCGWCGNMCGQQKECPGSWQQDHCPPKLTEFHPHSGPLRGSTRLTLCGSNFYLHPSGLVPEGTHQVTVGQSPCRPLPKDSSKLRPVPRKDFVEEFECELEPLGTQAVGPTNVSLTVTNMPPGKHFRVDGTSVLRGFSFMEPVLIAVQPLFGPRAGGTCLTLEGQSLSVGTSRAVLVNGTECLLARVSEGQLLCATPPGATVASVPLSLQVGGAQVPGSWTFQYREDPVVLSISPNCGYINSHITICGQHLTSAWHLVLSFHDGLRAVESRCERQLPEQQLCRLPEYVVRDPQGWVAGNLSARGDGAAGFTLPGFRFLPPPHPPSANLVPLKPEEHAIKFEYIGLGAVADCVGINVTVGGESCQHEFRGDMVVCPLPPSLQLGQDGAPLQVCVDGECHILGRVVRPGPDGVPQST
Protocol: (§1) Wells of 96-well EIA/RIA high binding plates (Costar, #2592) are coated with 100 μL of 1 μg/mL human c-Met extracellular domain (ECD)-Fc-Flis fusion (SEQ ID NO:72), RON-ECD-Fc (R&D Systems, #1947-MS), or PlexinA2-ECD-Fc (Abnova, Taipei, Taiwan #H00005362-P01) in coating buffer (BioFX Labs, # COAT-1000-01) overnight at 4° C. […] After the plates are washed, 100 μL/well of substrate solution (BioFx, #TMBW-1000-01) are added and the plates are incubated for 10 min. at room temperature. 100 μL/well of stop solution (BioFx, # LSTP-1000-01) are added to stop the reaction. The colorimetric signals are developed and read at 450 nm using a SpectraMax 190 plate reader (Molecular Devices, Sunnyvale, Calif.). c-Met antibody binding to c-Met, RON and PlexinA2 ECDs is proportional to color signal production.

[2] = target: T2, Human c-Met-Flis-Fc ECD (human); test: ELISA, coated ECD-Fc, antibody 77.160 ng/mL
T2 construct: also called human c-Met extracellular domain (ECD)-Fc-Flis fusion; Human cMet-ECD-Fc-Flis
T2 sequence (chain, as listed by the source limits assumed): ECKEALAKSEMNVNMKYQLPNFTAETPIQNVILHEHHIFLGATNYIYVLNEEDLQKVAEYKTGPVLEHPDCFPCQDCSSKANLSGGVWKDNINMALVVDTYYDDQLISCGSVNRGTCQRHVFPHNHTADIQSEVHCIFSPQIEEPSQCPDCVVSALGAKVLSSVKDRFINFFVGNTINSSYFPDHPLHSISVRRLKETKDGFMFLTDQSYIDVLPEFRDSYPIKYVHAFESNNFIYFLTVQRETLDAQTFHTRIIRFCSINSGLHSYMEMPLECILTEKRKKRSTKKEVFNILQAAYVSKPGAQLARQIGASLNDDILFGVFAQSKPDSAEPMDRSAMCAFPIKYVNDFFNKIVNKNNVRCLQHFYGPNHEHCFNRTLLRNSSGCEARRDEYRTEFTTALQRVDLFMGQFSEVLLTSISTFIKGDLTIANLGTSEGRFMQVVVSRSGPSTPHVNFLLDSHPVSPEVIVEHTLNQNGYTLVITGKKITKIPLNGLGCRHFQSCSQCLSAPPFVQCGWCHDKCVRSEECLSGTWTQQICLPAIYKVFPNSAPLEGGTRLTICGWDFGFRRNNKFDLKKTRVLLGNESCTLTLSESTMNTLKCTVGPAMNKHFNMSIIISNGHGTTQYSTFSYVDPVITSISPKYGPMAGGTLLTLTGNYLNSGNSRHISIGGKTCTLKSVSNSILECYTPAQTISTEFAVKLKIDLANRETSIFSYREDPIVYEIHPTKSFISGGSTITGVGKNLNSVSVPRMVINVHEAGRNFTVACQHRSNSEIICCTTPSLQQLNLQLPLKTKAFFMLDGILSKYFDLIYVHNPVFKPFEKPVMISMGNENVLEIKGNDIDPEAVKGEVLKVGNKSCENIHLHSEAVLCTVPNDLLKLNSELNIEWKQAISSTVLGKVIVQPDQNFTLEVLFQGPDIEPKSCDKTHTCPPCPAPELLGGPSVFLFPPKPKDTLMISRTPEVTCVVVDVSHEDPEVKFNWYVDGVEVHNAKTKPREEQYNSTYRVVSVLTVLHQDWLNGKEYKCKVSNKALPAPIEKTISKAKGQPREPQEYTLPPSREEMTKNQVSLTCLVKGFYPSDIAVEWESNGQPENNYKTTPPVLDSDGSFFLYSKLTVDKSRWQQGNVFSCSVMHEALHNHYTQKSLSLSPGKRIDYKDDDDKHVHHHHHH
Protocol: as §1

[3] = target: T3, PlexinA2-ECD-Fc (human, UniProt O75051 35-1237); test: ELISA, coated ECD-Fc, antibody 77.160 ng/mL
T3 construct: extracellular domain; Bought reagent
T3 sequence (looked up): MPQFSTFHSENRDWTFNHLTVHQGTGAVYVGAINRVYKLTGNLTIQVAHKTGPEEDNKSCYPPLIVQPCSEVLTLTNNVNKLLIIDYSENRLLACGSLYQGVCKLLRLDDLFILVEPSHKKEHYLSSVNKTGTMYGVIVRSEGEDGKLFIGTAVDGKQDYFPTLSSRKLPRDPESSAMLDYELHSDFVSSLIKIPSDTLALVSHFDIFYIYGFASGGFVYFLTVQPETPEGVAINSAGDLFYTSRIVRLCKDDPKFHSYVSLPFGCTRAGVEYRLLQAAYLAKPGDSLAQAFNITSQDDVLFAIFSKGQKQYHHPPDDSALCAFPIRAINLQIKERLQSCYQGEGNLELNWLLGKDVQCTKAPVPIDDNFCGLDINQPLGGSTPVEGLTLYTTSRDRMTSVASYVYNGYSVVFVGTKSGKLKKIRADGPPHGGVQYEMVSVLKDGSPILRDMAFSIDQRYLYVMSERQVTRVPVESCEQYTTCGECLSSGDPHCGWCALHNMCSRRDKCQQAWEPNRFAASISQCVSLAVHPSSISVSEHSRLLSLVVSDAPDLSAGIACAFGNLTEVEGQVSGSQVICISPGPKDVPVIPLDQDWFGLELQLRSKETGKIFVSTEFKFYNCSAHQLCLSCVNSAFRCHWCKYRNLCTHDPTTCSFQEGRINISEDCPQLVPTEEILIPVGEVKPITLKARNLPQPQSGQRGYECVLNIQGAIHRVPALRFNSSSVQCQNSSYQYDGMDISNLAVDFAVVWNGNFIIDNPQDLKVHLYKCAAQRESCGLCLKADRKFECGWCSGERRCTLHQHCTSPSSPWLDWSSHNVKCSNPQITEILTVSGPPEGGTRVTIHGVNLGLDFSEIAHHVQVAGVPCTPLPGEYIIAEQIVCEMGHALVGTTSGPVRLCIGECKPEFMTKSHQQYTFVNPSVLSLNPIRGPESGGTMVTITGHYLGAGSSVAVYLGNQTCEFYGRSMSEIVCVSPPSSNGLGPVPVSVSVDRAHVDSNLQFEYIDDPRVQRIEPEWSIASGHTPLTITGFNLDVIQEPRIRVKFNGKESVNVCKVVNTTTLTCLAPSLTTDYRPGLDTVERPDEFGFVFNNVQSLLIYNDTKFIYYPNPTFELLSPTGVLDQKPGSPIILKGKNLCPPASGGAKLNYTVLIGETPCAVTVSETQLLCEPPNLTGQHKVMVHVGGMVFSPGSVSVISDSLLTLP
Protocol: as §1

[4] = target: T1, RON-ECD-Fc; test: ELISA, coated ECD-Fc, antibody 16666.667 ng/mL
[5] = target: T3, PlexinA2-ECD-Fc; test: ELISA, coated ECD-Fc, antibody 16666.667 ng/mL
[6] = target: T4, mouse c-Met ECD (mouse, UniProt P16056 25-931); test: ELISA, coated ECD (data not shown)
T4 construct: extracellular domain
T4 sequence (P16056 25-931): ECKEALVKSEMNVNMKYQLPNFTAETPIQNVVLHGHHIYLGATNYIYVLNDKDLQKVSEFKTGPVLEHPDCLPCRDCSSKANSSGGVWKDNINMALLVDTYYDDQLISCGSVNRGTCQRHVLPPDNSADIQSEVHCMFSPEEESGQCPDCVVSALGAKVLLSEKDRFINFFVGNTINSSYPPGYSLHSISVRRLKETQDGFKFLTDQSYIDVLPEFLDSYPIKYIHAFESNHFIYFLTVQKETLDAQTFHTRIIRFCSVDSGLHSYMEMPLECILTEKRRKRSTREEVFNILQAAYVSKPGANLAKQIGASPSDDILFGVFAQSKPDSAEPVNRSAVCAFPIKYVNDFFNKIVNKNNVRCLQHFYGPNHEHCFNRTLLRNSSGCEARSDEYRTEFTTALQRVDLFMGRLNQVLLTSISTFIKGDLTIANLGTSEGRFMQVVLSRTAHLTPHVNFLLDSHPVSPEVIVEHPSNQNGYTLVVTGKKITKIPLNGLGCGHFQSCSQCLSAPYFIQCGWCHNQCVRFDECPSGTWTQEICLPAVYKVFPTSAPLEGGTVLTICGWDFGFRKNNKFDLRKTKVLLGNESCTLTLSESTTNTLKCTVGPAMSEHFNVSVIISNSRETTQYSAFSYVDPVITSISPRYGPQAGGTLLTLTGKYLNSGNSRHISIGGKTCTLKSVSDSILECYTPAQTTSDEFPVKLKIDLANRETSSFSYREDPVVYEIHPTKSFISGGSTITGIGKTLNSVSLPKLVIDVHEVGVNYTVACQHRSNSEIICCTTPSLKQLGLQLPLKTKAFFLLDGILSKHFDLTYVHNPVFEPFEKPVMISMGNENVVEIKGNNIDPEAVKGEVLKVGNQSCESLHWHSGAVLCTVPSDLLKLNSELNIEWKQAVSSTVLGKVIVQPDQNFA

[7] = target: T2, Human c-Met-Flis-Fc ECD; test: ELISA, coated ECD-Fc, antibody 2777.778 ng/mL
Protocol: as §1

B1: C8-6 (antibody, human IgG2, kappa, V domains shown)
VH: QVQLVQSGAEVKKPGASVKVSCKASGYTFTDYYMHWVRQAPGQGLEWMGRVNPNRGGTTYNQKFEGRVTMTTDTSTSTAYMELRSLRSDDTAVYYCARTNWLDYWGQGTTVTVSS
VL: DIQMTQSPSSLSASVGDRVTITCSVSSSVSSIYLHWYQQKPGKAPKLLIYSTSNLASGVPSRFSGSGSGTDFTLTISSLQPEDFATYYCIQYSGYPLTFGGGTKVEIKR
notes: Called IgG4, kappa; also called Mab C8-6
Average A450 nm [1]: 0.09 A450 nm | Average A450 nm [2]: 4 A450 nm | Average A450 nm [3]: 0.078 A450 nm | Average A450 nm [4]: 0.124 A450 nm | Average A450 nm [5]: 0.118 A450 nm | binding result [6]: no binding (tested: 100 nM) | Average A450 nm [7]: 4 A450 nm
